Data reported in publication PMC8745191.
Where a chain is given by its changes, count along the chain named.

Assays:
Settings in all cases: LightShift Chemiluminescent EMSA kit, manufacturer's protocol; binding buffer, pH and temperature not stated; protein eluted in 20 mM Tris-HCl pH 8.0, 500 mM …
[1] = biological target: T1, His-STOP1 (Arabidopsis thaliana) (UniProt Q9C8N5); assay: competition
T1 sequence: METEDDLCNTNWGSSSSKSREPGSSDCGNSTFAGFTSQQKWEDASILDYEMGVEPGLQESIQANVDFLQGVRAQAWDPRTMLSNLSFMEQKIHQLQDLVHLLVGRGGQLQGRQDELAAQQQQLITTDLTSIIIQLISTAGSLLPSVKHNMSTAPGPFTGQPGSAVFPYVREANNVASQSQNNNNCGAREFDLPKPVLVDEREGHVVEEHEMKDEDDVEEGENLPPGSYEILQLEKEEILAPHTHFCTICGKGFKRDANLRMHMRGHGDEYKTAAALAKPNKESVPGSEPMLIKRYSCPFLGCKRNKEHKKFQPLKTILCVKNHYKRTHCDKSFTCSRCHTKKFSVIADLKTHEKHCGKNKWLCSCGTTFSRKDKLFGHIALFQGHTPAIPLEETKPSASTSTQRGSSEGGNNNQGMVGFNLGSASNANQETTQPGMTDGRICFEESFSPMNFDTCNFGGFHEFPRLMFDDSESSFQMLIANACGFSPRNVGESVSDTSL

[2] = biological target: T1, His-STOP1 (Arabidopsis thaliana); assay: EMSA
[3] = biological target: T2, His-STOP1 H266Y H266Y (Arabidopsis thaliana (stop1-1 allele)) (UniProt Q9C8N5); assay: EMSA
T2 sequence: T1 sequence with H266Y

| Sequence | binding [1] | binding [2] | binding [3] |
| --- | --- | --- | --- |
| TTGCATTTAAATTATCAAAGACTAAGATAAGCCTAGAATAATTTAAAATGTAAACTATAGTATACGTCAGAACCTACAGATACAACCTTCCTCGTATAATCCCTAAACAGAATTTTAATT (double strand) [P3 unlabeled competitor (cold probe)] | binds | – | – |
| TTGCATTTAAATTATCAAAGACTAAGATAAGCCTAGAATAATTTAAAATGTAAACTATAGTATACGTCAGAACCTACAGATACAACCTTCCTCGTATAATCCCTAAACAGAATTTTAATT (double strand) [P3 (F2-2) LKS1 promoter probe] | – | binds | no binding |
